Assay results from article doi:10.1101/2023.04.24.538129 (bioRxiv, 2023).
Positions count from the first letter of the chain named. In names and notes the source's numbering stands.

B1: human dysferlin C2A domain with the pathogenic mutation W52R (C2A^W52R) (domain or fragment)
chain: MLRVFILYAENVHTPDTDISDAYCSAVFAGVKKRTKVIKNSVNPVWNEGFERDLKGIPLDQGSELHVVVKDHETMGRNRFLGEAKVPLREVLATPSLSASFNAPLLDTKKQPTGASLVLQVSYT
B2: human dysferlin C2A domain with the pathogenic mutation V67D (C2A^V67D) (domain or fragment)
chain: B1 chain with R52W, V67D

Biological target: the molecule itself
Experiment: Thioflavin-T fluorescence

Protein	binding result
B1	binds
B2	binds
